Data taken from patent US20070224189A1 (published 2007).
Positions count from the first letter of the chain named. Names and notes keep the numbering of the source.

B1: F241E/F243Y/V262T/V264R/I332E alemtuzumab (antibody)
heavy: DKTHTCPPCPAPELLGGPSVELYPPKPKDTLMISRTPEVTCTVRDVSHEDPEVKFNWYVDGVEVHNAKTKPREEQYNSTYRVVSVLTVLHQDWLNGKEYKCKVSNKALPAPEEKTISKAKGQPREPQVYTLPPSRDELTKNQVSLTCLVKGFYPSDIAVEWESNGQPENNYKTTPPVLDSDGSFFLYSKLTVDKSRWQQGNVFSCSVMHEALHNHYTQKSLSLSPGK
B2: S239D/A330Y/I332E/L235D trastuzumab (antibody)
heavy: B1 heavy with L15D, S19D, E21F, Y23F, T42V, R44V, A110Y
B3: F241L/F243L/V262I/V264I alemtuzumab (antibody)
heavy: B1 heavy with E21L, Y23L, T42I, R44I, E112I
B4: P230A/E233D/I332E trastuzumab (antibody)
heavy: B1 heavy with P10A, E13D, E21F, Y23F, T42V, R44V
B5: S239D/A330Y/I332E/L234I trastuzumab (antibody)
heavy: B1 heavy with L14I, S19D, E21F, Y23F, T42V, R44V, A110Y
B6: F243L/V262I/V264W alemtuzumab (antibody)
heavy: B1 heavy with E21F, Y23L, T42I, R44W, E112I
B7: F241Y/F243Y/V262T/V264T alemtuzumab (antibody)
heavy: B1 heavy with E21Y, R44T, E112I
B8: S239D/D265Y/N297D/I332E alemtuzumab (antibody)
heavy: B1 heavy with S19D, E21F, Y23F, T42V, R44V, D45Y, N77D
B9: S239D/A330Y/I332E/K326E trastuzumab (antibody)
heavy: B1 heavy with S19D, E21F, Y23F, T42V, R44V, K106E, A110Y
B10: S239D/A330Y/I332E/V240I trastuzumab (antibody)
heavy: B1 heavy with S19D, V20I, E21F, Y23F, T42V, R44V, A110Y
B11: S239D/I332E/A330I trastuzumab (antibody)
heavy: B1 heavy with S19D, E21F, Y23F, T42V, R44V, A110I
B12: F241W/F243W/V262A/V264A alemtuzumab (antibody)
heavy: B1 heavy with E21W, Y23W, T42A, R44A, E112I
B13: S239D/A330Y/I332E/V264T trastuzumab (antibody)
heavy: B1 heavy with S19D, E21F, Y23F, T42V, R44T, A110Y
B14: S298A/E333A/K334A alemtuzumab (antibody)
heavy: not shown

molecular target: extracellular region of human V158 FcγRIIIa fused with glutathione S-Transferase (GST) (human, UniProt P08637 17-208); assay: AlphaScreen competition
Sequence (P08637 17-208 F176V): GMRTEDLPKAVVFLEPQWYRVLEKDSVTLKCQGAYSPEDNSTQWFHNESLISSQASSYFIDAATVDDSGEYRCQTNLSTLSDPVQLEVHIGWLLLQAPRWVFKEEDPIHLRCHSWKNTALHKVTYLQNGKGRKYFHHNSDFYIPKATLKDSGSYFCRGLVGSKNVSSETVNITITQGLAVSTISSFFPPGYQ

Row | FcγRIIIa Fold [fold vs WT] | Binder
1 | 0.1 | B1
2 | 7.04 | B2
3 | 0.09 | B3
4 | 1.87 | B4
5 | 22.4 | B5
6 | 0.02 | B6
7 | 0.05 | B7
8 | 0.02 | B8
9 | 64.1 | B9
10 | 28 | B10
11 | 59.1 | B11
12 | 0.04 | B12
13 | 17.7 | B13

molecular target: His-tagged V158 FcγRIIIa (human, UniProt P08637 17-208); assay: SPR, receptor on chip
Sequence (P08637 17-208 F176V): as above

Row | Kd [µM] | Binder
14 | 0.039 | B14

molecular target: human F158 FcγRIIIa as used in SPR (human, UniProt P08637 17-208); assay: SPR
Sequence (P08637 17-208): as the sequence (P08637 17-208 F176V) above, with V160F counted along it

Row | Kd [µM] | Binder
15 | 0.156 | B14
